The text below walks through data of publication PMC12307460.

Experiment [1] deals with MERS-CoV spike (S) protein of strain HCoV-EMC/2012 (clade A) (MERS-CoV strain HCoV-EMC/2012 (clade A)) (UniProt K9N5Q8).
Experiment [2] has as its target spike (S) protein of bat merbecovirus BtCoV/Ii/GD/2014-422 (BtCoV/Ii/GD/2014-422 (bat MERSr-CoV)).
Experiment [3] concerns the target MERS-CoV spike (S) protein of strain NRCE-HKU270 (clade C) (MERS-CoV strain NRCE-HKU270 (clade C)).
Experiment [4] concerns the target spike (S) protein of pangolin merbecovirus MjHKU4r-CoV (MjHKU4r-CoV (pangolin HKU4r-CoV)).
For experiment [5], the target named is MERS-CoV spike (S) protein of strain MERS-CoV/KOR/KNIH/002_05_2015 (clade B) (MERS-CoV strain MERS-CoV/KOR/KNIH/002_05_2015 (clade B)).

Several values for one entry are separate records, joined by “and”; a condition that tells them apart may be missing. Equal entries are not always repeated.

Sequence of UniProt K9N5Q8 (K9N5Q8 18-1353): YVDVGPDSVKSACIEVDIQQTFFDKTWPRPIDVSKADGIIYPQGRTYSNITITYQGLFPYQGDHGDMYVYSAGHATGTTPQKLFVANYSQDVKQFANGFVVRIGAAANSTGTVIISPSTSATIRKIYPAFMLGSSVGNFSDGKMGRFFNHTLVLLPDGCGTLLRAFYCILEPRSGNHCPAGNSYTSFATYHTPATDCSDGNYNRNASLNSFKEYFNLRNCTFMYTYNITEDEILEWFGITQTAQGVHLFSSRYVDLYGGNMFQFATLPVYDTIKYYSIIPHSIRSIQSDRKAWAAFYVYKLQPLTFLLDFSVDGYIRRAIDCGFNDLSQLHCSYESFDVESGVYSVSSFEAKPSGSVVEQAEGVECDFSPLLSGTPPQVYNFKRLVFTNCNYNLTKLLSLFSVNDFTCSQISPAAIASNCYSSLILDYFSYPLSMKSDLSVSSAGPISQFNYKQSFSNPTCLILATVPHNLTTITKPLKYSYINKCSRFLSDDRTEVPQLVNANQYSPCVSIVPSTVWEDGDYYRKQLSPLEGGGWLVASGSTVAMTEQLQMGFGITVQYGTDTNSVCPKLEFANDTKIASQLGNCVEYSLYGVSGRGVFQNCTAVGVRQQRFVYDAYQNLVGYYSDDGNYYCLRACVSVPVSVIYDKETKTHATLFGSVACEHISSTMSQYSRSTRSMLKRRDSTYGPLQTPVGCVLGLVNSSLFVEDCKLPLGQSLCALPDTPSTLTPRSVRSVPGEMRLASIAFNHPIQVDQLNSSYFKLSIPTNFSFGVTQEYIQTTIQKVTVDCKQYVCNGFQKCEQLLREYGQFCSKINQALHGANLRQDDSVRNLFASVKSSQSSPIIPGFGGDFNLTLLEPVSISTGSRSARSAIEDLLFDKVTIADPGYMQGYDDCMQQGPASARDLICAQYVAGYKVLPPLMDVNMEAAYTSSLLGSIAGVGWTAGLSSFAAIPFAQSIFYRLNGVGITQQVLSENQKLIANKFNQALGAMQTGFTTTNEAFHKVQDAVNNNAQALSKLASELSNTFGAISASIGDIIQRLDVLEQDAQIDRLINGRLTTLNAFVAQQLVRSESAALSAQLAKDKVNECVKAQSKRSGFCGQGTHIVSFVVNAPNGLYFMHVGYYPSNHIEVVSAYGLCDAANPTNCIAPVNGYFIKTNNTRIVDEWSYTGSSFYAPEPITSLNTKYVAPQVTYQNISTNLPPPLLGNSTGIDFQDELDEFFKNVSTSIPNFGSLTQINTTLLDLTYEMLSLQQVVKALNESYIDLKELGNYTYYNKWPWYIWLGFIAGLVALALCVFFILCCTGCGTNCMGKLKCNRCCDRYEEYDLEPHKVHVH

Turning to 7D10 (antibody), the IC50 of neutralisation of S pseudovirus, average was 50 µg/mL in experiment [1]; 23 µg/mL in experiment [2]; over 50 µg/mL in experiment [3]; over 50 µg/mL in experiment [4]; 7.5 µg/mL in experiment [5]. In addition, the values for the IC50 of neutralisation of S pseudovirus, one of three assays in experiment [1], in experiment [3] and in experiment [4] were 50 µg/mL, over 50 µg/mL and over 50 µg/mL, respectively.
As to CDC2-C2 (antibody), the IC50 of neutralisation of S pseudovirus, average is 0.041 µg/mL in experiment [1]; over 5 µg/mL in experiment [2]; 0.12 µg/mL in experiment [3]; over 5 µg/mL in experiment [4]; 0.17 µg/mL in experiment [5]. The IC50 of neutralisation of S pseudovirus, one of three assays in experiment [2] and in experiment [4] was over 5 µg/mL throughout.
Regarding D12 (antibody), the IC50 of neutralisation of S pseudovirus, average in experiment [1] is 0.068 µg/mL; in experiment [2], over 5 µg/mL; in experiment [3] it was 0.085 µg/mL; in experiment [4], over 5 µg/mL; in experiment [5], 0.19 µg/mL. The IC50 of neutralisation of S pseudovirus, one of three assays in experiment [1] was 0.087 µg/mL and 0.077 µg/mL and 0.041 µg/mL; in experiment [2], over 5 µg/mL; in experiment [3], 0.095 µg/mL and 0.098 µg/mL and 0.061 µg/mL; in experiment [4], over 5 µg/mL; in experiment [5] it was 0.25 µg/mL and 0.18 µg/mL and 0.14 µg/mL.
As for G4 (antibody), the IC50 of neutralisation of S pseudovirus, average was 8.1 µg/mL in experiment [1]; 11 µg/mL in experiment [2]; 9.3 µg/mL in experiment [3]; over 25 µg/mL in experiment [4]; 7.7 µg/mL in experiment [5]. Further, the IC50 of neutralisation of S pseudovirus, one of three assays in experiment [1] was 5.9 µg/mL and 6.4 µg/mL and 12 µg/mL; in experiment [3] it was 5.2 µg/mL and 8.7 µg/mL and 14 µg/mL; in experiment [4], over 25 µg/mL.
As to JC57-14 (antibody), the IC50 of neutralisation of S pseudovirus, average in experiment [1] is 0.037 µg/mL; in experiment [2], over 5 µg/mL; in experiment [3] it was 0.055 µg/mL; in experiment [4], over 5 µg/mL; in experiment [5] it was 0.064 µg/mL. Besides, the IC50 of neutralisation of S pseudovirus, one of three assays in experiment [1] is 0.039 µg/mL and 0.023 µg/mL and 0.047 µg/mL; in experiment [2], over 5 µg/mL; in experiment [3], 0.066 µg/mL and 0.059 µg/mL and 0.039 µg/mL; in experiment [4] it was over 5 µg/mL; in experiment [5] it was 0.09 µg/mL and 0.043 µg/mL and 0.06 µg/mL.
For MCA1 (antibody), the IC50 of neutralisation of S pseudovirus, average is 0.059 µg/mL in experiment [1]; over 5 µg/mL in experiment [2]; 0.067 µg/mL in experiment [3]; over 5 µg/mL in experiment [4]; 0.096 µg/mL in experiment [5]. Besides, the IC50 of neutralisation of S pseudovirus, one of three assays in experiment [2] is over 5 µg/mL; in experiment [3], 0.084 µg/mL and 0.047 µg/mL and 0.071 µg/mL; in experiment [4], over 5 µg/mL; in experiment [5], 0.082 µg/mL and 0.06 µg/mL and 0.15 µg/mL.
Turning to m336 (antibody), the IC50 of neutralisation of S pseudovirus, average was 0.14 µg/mL in experiment [1]; over 5 µg/mL in experiment [2]; 0.36 µg/mL in experiment [3]; over 5 µg/mL in experiment [4]; 0.85 µg/mL in experiment [5]. Besides, the IC50 of neutralisation of S pseudovirus, one of three assays in experiment [2] and in experiment [4] was over 5 µg/mL each time.
